Laboratory results reported in PMC7062800.

Experiments:
[1] = system: RdhK1 (CprK4) (Desulfitobacterium hafniense DCB-2); test: EMSA; details: no effector; EMSA: 100 ng DNA, 2 uM protein, 200 uM effector, 15 uL; buffer 100 mM Tris-HCl pH 8.5, 40% glycerol, 10 mM MgCl2, 500 mM NaCl, 5 mM EDTA, 10 mM DTT …
[2] = molecular target: RdhK6 (CprK1) (Desulfitobacterium hafniense DCB-2) (UniProt Q18R04); test: EMSA; details: 200 uM Cl-OHPA; EMSA: 100 ng DNA, 2 uM protein, 200 uM effector, 15 uL; buffer 100 mM Tris-HCl pH 8.5, 40% glycerol, 10 mM MgCl2, 500 mM NaCl, 5 mM EDTA, 10 mM DTT …

| Sequence | binding signal [1] | binding signal [2] |
| --- | --- | --- |
| GAATTCTCAGGCGATGTAACCGCTTTCAAAGTTAATACACATTAATACTCTTAACAATGTGATAGCTATGATTGCACCG (double strand) [mgl-DB7] | 10 % DNA bound | 100 % DNA bound |
| GAATTCTCAGGCGATGTAACCGCTTTCAAATTTAGTATACGCTAAATATCTTAACAATGTGATAGCTATGATTGCACCG (double strand) [mgl-DB8] | 80 % DNA bound | 100 % DNA bound |
